Results published in patent US5770702, “Fibronectin binding protein as well as its preparation” (dated 1998).

Target: Human fibronectin (intact) (human, UniProt P02751-8, 125I-labelled in the cell binding assays; coupled to Sepharose in the affinity chromatography)
Experiment: inhibition of labelled fibronectin binding to S. aureus cells

B1: 165 kD fibronectin binding protein (FNBP) isolated from E. coli pFR001 (receptor)
chain: ASEQKTTTVEENGNSATDNKTSETQTTATNVNHIEETQSYNATVTEQPSNATQVTTEEAPKAVQAPQTAQPANIETVKEEVVKEEAKPQVKETTQSQDNSGDQRQVDLTPKKATQNQVAETQVEVAQPRTASESKPRVTRSADVAEAKEASNAKVETGTDVTSKVTVEIGSIEGHNNTNKVEPHAGQRAVLKYKLKFENGLHQGDYFDFTLSNNVNTHGVSTARKVPEIKNGSVVMATGEVLEGGKIRYTFTNDIEDKVDVTAELEINLFIDPKTVQTNGNQTITSTLNEEQTSKELDVKYKDGIGNYYANLNGSIETFNKANNRFSHVAFIKPNNGKTTSVTVTGTLMKGSNQNGNQPKVRIFEYLGNNEDIAKSVYANTTDTSKFKEVTSNMSGNLNLQNNGSYSLNIENLDKTYVVHYDGEYLNGTDEVDFRTQMVGHPEQLYKYYYDRGYTLTWDNGLVLYSNKANGNEKNGPIIQNNKFEYKEDTIKETLTGQYDKNLVTTVEEEYDSSTLDIDYHTAIDGGGGYVDGYIETIEETDSSAIDIDYHTAVDSEAGHVGGYTESSEESNPIDFEESTHENSKHHADVVEYEEDTNPGGGQVTTESNLVEFDEESTKGIVTGAVSDHTTVEDTKEYTTESNLIELVDELPEEHGQAQGPVEEITKNNHHISHSGLGTENGHGNYDVIEEIEENSHVDIKSELGYEGGQNSGNQSFEEDTEEDKPKYEQGGNIVDIDFDSVPQIHGQNKGNQSFEEDTEKDKPKYEHGGNIIDIDFDSVPHIHGFNKHTEIIEEDTNKDKPSYQFGGHNSVDFEEDTLPKVSGQNEGQQTIEEDTTPPIVPPTPPTPEVPSEPETPTPPTPEVPSEPETPTPPTPEVPSEPETPTPPTPEVPAEPGKPVPPAKEEPKKPSKPVEQGKVVTPVIEINEKVKAVAPTKKPQSKKSELPETGGEESTNKGMLFGGLFSILGLALLRRNKKNHKA
fold more active than the 87 kD protein on a molar basis: 30 times
